According to paper PMC4227051, “B4GAT1 is the priming enzyme for the LARGE-dependent functional glycosylation of α-dystroglycan” (eLife, 2014):

Key:
B3GNT2 = target: T1, B3GNT2 (Homo sapiens, UniProt Q9NY97); assay: radioactive GlcNAc transfer, scintillation counting; format: biochemical; conditions: 0.1 M MES pH 6.5, 10 mM MnCl2, 37 °C, overnight
T1 construct: catalytic domain residues 35-397, secreted; N-terminal 8xHis-AviTag-sfGFP-TEV fusion kept; HEK293F host, Ni-NTA
T1 sequence (Q9NY97 35-397): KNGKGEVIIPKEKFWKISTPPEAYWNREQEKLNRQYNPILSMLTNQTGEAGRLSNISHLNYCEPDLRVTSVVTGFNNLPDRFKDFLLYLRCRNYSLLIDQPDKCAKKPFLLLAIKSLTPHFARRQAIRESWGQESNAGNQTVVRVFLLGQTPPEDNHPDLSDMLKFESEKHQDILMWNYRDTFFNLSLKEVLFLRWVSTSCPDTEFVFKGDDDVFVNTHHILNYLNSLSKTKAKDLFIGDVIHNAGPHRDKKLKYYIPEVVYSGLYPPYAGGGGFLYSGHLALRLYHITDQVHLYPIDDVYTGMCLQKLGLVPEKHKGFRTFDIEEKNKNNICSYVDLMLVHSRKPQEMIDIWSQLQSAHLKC

purified protein [1] = substrate: O=[N+]([O-])c1ccc(O[C@H]2OC[C@@H](O)[C@H](O)[C@H]2O)cc1; assay: purified protein; format: biochemical, Homo sapiens; conditions: 2 mM UDP-GlcA, 0.1 M MES pH 6.5, 10 mM MnCl2, 5 mM MgCl2, 37 °C, acceptor tested 200 nM to 2 mM
purified protein [2] = substrate: O=[N+]([O-])c1ccc(O[C@@H]2OC[C@@H](O)[C@H](O)[C@H]2O)cc1; assay: purified protein; format: biochemical, Homo sapiens; conditions: 2 mM UDP-GlcA, 0.1 M MES pH 6.5, 10 mM MnCl2, 5 mM MgCl2, 37 °C, 2 h, acceptor tested 200 nM to 2 mM
[3] = 16 h, glucuronyltransferase activity

For `CC(=O)N[C@H]1[C@@H](OP(=O)(O)OP(=O)(O)OC[C@H]2O[C@@H](n3ccc(=O)[nH]c3=O)[C@H](O)[C@@H]2O)O[C@H](CO)[C@@H](O)[C@@H]1O` [UDP-GlcNAc], the “radioactive GlcNAc transfer, scintillation counting” value (B3GNT2; donor, labelled compound, acceptor Gal-β4-GlcNAc-β-pNP) was “radioactive incorporation of GlcNAc into the N-acetyllactosamine acceptor”.

For `CC(=O)N[C@H]1[C@H](Oc2ccc([N+](=O)[O-])cc2)O[C@H](CO)[C@@H](O[C@@H]2O[C@H](CO)[C@H](O)[C@H](O)[C@H]2O)[C@@H]1O` [Gal-β4-GlcNAc-β-pNP], the “radioactive GlcNAc transfer, scintillation counting” value (B3GNT2; 2 mM UDP-GlcNAc with UDP-[3H]GlcNAc) was “showed clear N-acetylglucosaminyltransferase activity toward the acceptor only with B3GNT2”.

B1: B3GNT1 (B4GAT1) (Homo sapiens) (protein)
chain: RSVDQVKAQLRTALASGGVLDASGDYRVYRGLLKTTMDPNDVILATHASVDNLLHLSGLLERWEGPLSVSVFAATKEEAQLATVLAYALSSHCPDMRARVAMHLVCPSRYEAAVPDPREPGEFALLRSCQEVFDKLARVAQPGINYALGTNVSYPNNLLRNLAREGANYALVIDVDMVPSEGLWRGLREMLDQSNQWGGTALVVPAFEIRRARRMPMNKNELVQLYQVGEVRPFYYGLCTPCQAPTNYSRWVNLPEESLLRPAYVVPWQDPWEPFYVAGGKVPTFDERFRQYGFNRISQACELHVAGFDFEVLNEGFLVHKGFKEALKFHPQKEAENQHNKILYRQFKQELKAKYPNSPRRC
notes: catalytic domain residues 54-415, secreted, transmembrane domain removed; N-terminal 8xHis-AviTag-sfGFP-TEV fusion cut by TEV; HEK293F host, Ni-NTA
Molecule B1 has a Km (purified protein [1]; 2 h) of 3.0 mM, a kcat (purified protein [1]; 2 h) of 0.087 s⁻¹ and a kcat/Km (purified protein [1]; 2 h) of 29 M⁻¹ s⁻¹. For the same molecule, the Km (purified protein [2]) was 4.0 mM, the kcat (purified protein [2]) was 0.25 s⁻¹ and the kcat/Km (purified protein [2]) was 63 M⁻¹ s⁻¹.

B2: LARGE (Homo sapiens) (protein)
chain: PSHRRGNHSKTYSMEEGTGDSENLRAGIVAGNSSECGQQPVVEKCETIHVAIVCAGYNASRDVVTLVKSVLFHRRNPLHFHLIADSIAEQILATLFQTWMVPAVRVDFYNADELKSEVSWIPNKHYSGIYGLMKLVLTKTLPANLERVIVLDTDITFATDIAELWAVFHKFKGQQVLGLVENQSDWYLGNLWKNHRPWPALGRGYNTGVILLLLDKLRKMKWEQMWRLTAERELMGMLSTSLADQDIFNAVIKQNPFLVYQLPCFWNVQLSDHTRSEQCYRDVSDLKVIHWNSPKKLRVKNKHVEFFRNLYLTFLEYDGNLLRRELFGCPSEADVNSENLQKQLSELDEDDLCYEFRRERFTVHRTHLYFLHYEYEPAADSTDVTLVAQLSMDRLQMLEAICKHWEGPISLALYLSDAEAQQFLRYAQGSEVLMSRHNVGYHIVYKEGQFYPVNLLRNVAMKHISTPYMFLSDIDFLPMYGLYEYLRKSVIQLDLANTKKAMIVPAFETLRYRLSFPKSKAELLSMLDMGTLFTFRYHVWTKGHAPTNFAKWRTATTPYRVEWEADFEPYVVVRRDCPEYDRRFVGFGWNKVAHIMELDVQEYEFIVLPNAYMIHMPHAPSFDITKFRSNKQYRICLKTLKEEFQQDMSRRYGFAALKYLTAENNS
notes: catalytic domains residues 91-756, secreted; N-terminal 8xHis-AviTag-sfGFP-TEV fusion kept; HEK293F host, Ni-NTA
For B2, the Km (purified protein [1]; [3]) was 6.0 mM, the kcat (purified protein [1]; [3]) was 0.005 s⁻¹ and the kcat/Km (purified protein [1]; [3]) was 0.84 M⁻¹ s⁻¹.
